Read-outs that look alike come from different tables or passages of the source.
What was measured:
[1] = biological target: human TNFRSF25 (expressed on P815 cells) (human) (UniProt Q93038); assay: cell-based or functional assay
[2] = biological target: human TNFRSF25 (expressed on P815 cells) (human), Q93038; assay: cell-based or functional assay
WBP330.hProl.ECD.hF = biological target: T1, WBP330.hProl.ECD.hF (human, UniProt Q93038 25-199); assay: SPR (ProteOn), TNFRSF25 ECD fusion as ligand, antibody as analyte, bivalent analyte model
T1 construct: extracellular domain; also called human TNFRSF25 (SPR ligand)
T1 sequence (looked up): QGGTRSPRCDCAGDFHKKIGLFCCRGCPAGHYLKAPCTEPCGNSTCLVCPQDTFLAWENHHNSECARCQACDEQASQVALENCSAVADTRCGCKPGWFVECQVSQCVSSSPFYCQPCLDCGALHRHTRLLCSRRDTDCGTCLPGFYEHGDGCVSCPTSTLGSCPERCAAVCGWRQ
Description: Affinity of the indicated humanized TNFRSF25 antibodies was determined by surface plasmon resonance (SPR) using the ProteOn method (FIG. 7 and TABLE 3).

[3] = biological target: human TNFRSF25 (expressed on P815 cells) (human) (UniProt Q93038); assay: cell-based or functional assay; remark: listed apart in the source
[4] = biological target: human TNFRSF25 (expressed on P815 cells) (human) (UniProt Q93038); assay: flow cytometry on P815 cells expressing human TNFRSF25
[5] = biological target: human TNFRSF25 (expressed on P815 cells) (human) (UniProt Q93038); assay: flow cytometry on P815 cells expressing human TNFRSF25 (mean fluorescence intensity)
human TNFRSF25-Fc = biological target: T2, human TNFRSF25-Fc (human, UniProt Q93038 25-199, limits assumed); assay: ELISA, binding of PTX-25 to human TNFRSF25-Fc, OD 450 nm
T2 construct: also called human TNFRSF25 fusion protein; not shown: Fc part
T2 sequence (looked up): T1 sequence (looked up)

In the case of “hTL1A-hFc chimera (from UniProt O95150 72-251) (Fc fusion)”, the EC50 of induced caspase activity [1] is reported as 0.283 µg/mL.

B1: WBP330.cAb1.hIgG1 (35783) (antibody, V domains shown)
VH: EVQLVESGGGLSQPGNSLQLSCEASGFTFSNHDLNWVRQAPGKGLEWVAYISSASGLISYADAVRGRFTISRDNAKNSLFLQMNNLKSEDTAMYYCARDPPYSGLYALDFWGQGTQVTVSS
VL: QPVLTQSPSASASLSGSVKLTCTLSSELSSYTIVWYQQRPDKAPKYVMYLKSDGSHSKGDGIPDRFSGSSSGAHRYLSISNVQSEDDATYFCGAGYTLAGQYGWVFGSGTKVTVL
notes: also called cAb1 (35783); chimeric antibody
B1 showed an EC50 (nM), caspase activation in P815 cells expressing human TNFRSF25 [2] of 71.4 nM, an EC50 of induced caspase activity [2] of 0.121 µg/mL and a Kd (WBP330.hProl.ECD.hF) of 58.1 nM. For the same molecule, the koff (WBP330.hProl.ECD.hF) was 0.00576 s⁻¹ and the kon (WBP330.hProl.ECD.hF) was 99000 M⁻¹ s⁻¹.

B2: WBP330BMK1 (antibody, V domains shown)
VH: B1 VH
VL: B1 VL
B2 showed an EC50 (nM), caspase activation in P815 cells expressing human TNFRSF25 [3] of 19.6 nM, an EC50 of induced caspase activity [3] of 0.0192 µg/mL and a Kd [4] of 73.5 nM. The Bmax [5] was 246, the Kd (WBP330.hProl.ECD.hF) was 254 nM and the koff (WBP330.hProl.ECD.hF) was 0.0252 s⁻¹. It also gave a kon (WBP330.hProl.ECD.hF) of 99000 M⁻¹ s⁻¹.

B3: PTX-25 (human TNFRSF25-specific monoclonal antibody, pre-humanized parental) (antibody, V domains shown)
VH: B1 VH
VL: B1 VL
notes: also called Pre-humanized Parental PTX-25; human TNFRSF25-specific mAb
With B3 the “EC50 (read off the curve)” value (human TNFRSF25-Fc) was roughly 0.04 µg/mL and the IC50 (human TNFRSF25-Fc) was 5.17 nM.

Reference: patent US20170362329A1 (PELICAN THERAPEUTICS, published 2017)
